According to patent publication US20240018502A1:

B1: MTSP-1 Q38H/I41S/D60bT/F60eS/Y60gW/ins97aV/F97D/T98P/F99L/C122S/G151N/Q175A/Q192D (enzyme)
chain: VVGGTDADEGEWPWQVSLHALGHGHSCGASLISPNWLVSAAHCYIDTRGSRWSDPTQWTAFLGLHDQSQRSAPGVQERRLKRIISHPFFNDDVPLDYDIALLELEKPAEYSSMVRPISLPDASHVFPAGKAIWVTGWGHTQYGGTNALILQKGEIRVINQTTCENLLPQAITPRMMCVGFLSGGVDSCDGDSGGPLSSVEADGRIFQAGVVSWGDGCAQRNKPGVYTRLPLFRDWIKENTGV
B2: MTSP-1 Q38H/I41S/D60bT/F60eS/Y60gW/ins97aV/F97D/T98P/F99L/C122S/G151N/Q175L/Q192E (enzyme)
chain: VVGGTDADEGEWPWQVSLHALGHGHSCGASLISPNWLVSAAHCYIDTRGSRWSDPTQWTAFLGLHDQSQRSAPGVQERRLKRIISHPFFNDDVPLDYDIALLELEKPAEYSSMVRPISLPDASHVFPAGKAIWVTGWGHTQYGGTNALILQKGEIRVINQTTCENLLPQLITPRMMCVGFLSGGVDSCEGDSGGPLSSVEADGRIFQAGVVSWGDGCAQRNKPGVYTRLPLFRDWIKENTGV
B3: MTSP-1 I41T/D60bH/ins97aV/F97D/T98P/F99L/C122S/Q192G/D217I (enzyme)
chain: VVGGTDADEGEWPWQVSLHALGQGHTCGASLISPNWLVSAAHCYIDHRGFRYSDPTQWTAFLGLHDQSQRSAPGVQERRLKRIISHPFFNDDVPLDYDIALLELEKPAEYSSMVRPISLPDASHVFPAGKAIWVTGWGHTQYGGTGALILQKGEIRVINQTTCENLLPQQITPRMMCVGFLSGGVDSCGGDSGGPLSSVEADGRIFQAGVVSWGIGCAQRNKPGVYTRLPLFRDWIKENTGV
B4: MTSP-1 Q38E/I41S/D60bV/F60eK/Y60gW/ins97aE/F97T/T98G/F99L/C122S/G151H/Q175L/Q192D (enzyme)
chain: VVGGTDADEGEWPWQVSLHALGEGHSCGASLISPNWLVSAAHCYIDVRGKRWSDPTQWTAFLGLHDQSQRSAPGVQERRLKRIISHPFFNDTEGLDYDIALLELEKPAEYSSMVRPISLPDASHVFPAGKAIWVTGWGHTQYGGTHALILQKGEIRVINQTTCENLLPQLITPRMMCVGFLSGGVDSCDGDSGGPLSSVEADGRIFQAGVVSWGDGCAQRNKPGVYTRLPLFRDWIKENTGV
B5: MTSP-1 Q38H/I41A/D60bT/F60eK/Y60gW/ins97aE/F97T/T98G/F99L/C122S/G151H/Q175L/Q192D (enzyme)
chain: VVGGTDADEGEWPWQVSLHALGHGHACGASLISPNWLVSAAHCYIDTRGKRWSDPTQWTAFLGLHDQSQRSAPGVQERRLKRIISHPFFNDTEGLDYDIALLELEKPAEYSSMVRPISLPDASHVFPAGKAIWVTGWGHTQYGGTHALILQKGEIRVINQTTCENLLPQLITPRMMCVGFLSGGVDSCDGDSGGPLSSVEADGRIFQAGVVSWGDGCAQRNKPGVYTRLPLFRDWIKENTGV
B6: MTSP-1 Q38H/I41S/D60bT/ins97aV/F97D/T98P/F99L/C122S/I136V/Q192G/D217S (enzyme)
chain: VVGGTDADEGEWPWQVSLHALGHGHSCGASLISPNWLVSAAHCYIDTRGFRYSDPTQWTAFLGLHDQSQRSAPGVQERRLKRIISHPFFNDDVPLDYDIALLELEKPAEYSSMVRPISLPDASHVFPAGKAVWVTGWGHTQYGGTGALILQKGEIRVINQTTCENLLPQQITPRMMCVGFLSGGVDSCGGDSGGPLSSVEADGRIFQAGVVSWGSGCAQRNKPGVYTRLPLFRDWIKENTGV
B7: MTSP-1 Q38H/I41S/L52M/D60bG/ins97aV/F97D/T98P/F99L/M117K/C122S/I136L/Q192G/D217A (enzyme)
chain: VVGGTDADEGEWPWQVSLHALGHGHSCGASLISPNWMVSAAHCYIDGRGFRYSDPTQWTAFLGLHDQSQRSAPGVQERRLKRIISHPFFNDDVPLDYDIALLELEKPAEYSSKVRPISLPDASHVFPAGKALWVTGWGHTQYGGTGALILQKGEIRVINQTTCENLLPQQITPRMMCVGFLSGGVDSCGGDSGGPLSSVEADGRIFQAGVVSWGAGCAQRNKPGVYTRLPLFRDWIKENTGV
B8: MTSP-1 Q38E/I41A/D60bH/ins97aV/F97D/T98P/F99L/C122S/Q192G/Q209L/D217H (enzyme)
chain: VVGGTDADEGEWPWQVSLHALGEGHACGASLISPNWLVSAAHCYIDHRGFRYSDPTQWTAFLGLHDQSQRSAPGVQERRLKRIISHPFFNDDVPLDYDIALLELEKPAEYSSMVRPISLPDASHVFPAGKAIWVTGWGHTQYGGTGALILQKGEIRVINQTTCENLLPQQITPRMMCVGFLSGGVDSCGGDSGGPLSSVEADGRIFLAGVVSWGHGCAQRNKPGVYTRLPLFRDWIKENTGV
B9: MTSP-1 Q38H/I41S/P49Q/D60bS/F93L/ins97aV/F97D/T98P/F99L/C122S/Q192G/D217Q (enzyme)
chain: VVGGTDADEGEWPWQVSLHALGHGHSCGASLISQNWLVSAAHCYIDSRGFRYSDPTQWTAFLGLHDQSQRSAPGVQERRLKRIISHPLFNDDVPLDYDIALLELEKPAEYSSMVRPISLPDASHVFPAGKAIWVTGWGHTQYGGTGALILQKGEIRVINQTTCENLLPQQITPRMMCVGFLSGGVDSCGGDSGGPLSSVEADGRIFQAGVVSWGQGCAQRNKPGVYTRLPLFRDWIKENTGV
B10: MTSP-1 I41S/D60bT/F93L/ins97aV/F97D/T98P/F99L/C122S/Q192G/D217H (enzyme)
chain: VVGGTDADEGEWPWQVSLHALGQGHSCGASLISPNWLVSAAHCYIDTRGFRYSDPTQWTAFLGLHDQSQRSAPGVQERRLKRIISHPLFNDDVPLDYDIALLELEKPAEYSSMVRPISLPDASHVFPAGKAIWVTGWGHTQYGGTGALILQKGEIRVINQTTCENLLPQQITPRMMCVGFLSGGVDSCGGDSGGPLSSVEADGRIFQAGVVSWGHGCAQRNKPGVYTRLPLFRDWIKENTGV
B11: MTSP-1 Q38H/I41A/D60bW/ins97aV/F97D/T98P/F99L/C122S/I136M/Q192G/D217N (enzyme)
chain: VVGGTDADEGEWPWQVSLHALGHGHACGASLISPNWLVSAAHCYIDWRGFRYSDPTQWTAFLGLHDQSQRSAPGVQERRLKRIISHPFFNDDVPLDYDIALLELEKPAEYSSMVRPISLPDASHVFPAGKAMWVTGWGHTQYGGTGALILQKGEIRVINQTTCENLLPQQITPRMMCVGFLSGGVDSCGGDSGGPLSSVEADGRIFQAGVVSWGNGCAQRNKPGVYTRLPLFRDWIKENTGV
B12: MTSP-1 Q38H/I41A/D60bV/F60eI/Y60gW/ins97aE/F97T/T98G/F99L/C122S/G151H/Q175L/Q192D (enzyme)
chain: VVGGTDADEGEWPWQVSLHALGHGHACGASLISPNWLVSAAHCYIDVRGIRWSDPTQWTAFLGLHDQSQRSAPGVQERRLKRIISHPFFNDTEGLDYDIALLELEKPAEYSSMVRPISLPDASHVFPAGKAIWVTGWGHTQYGGTHALILQKGEIRVINQTTCENLLPQLITPRMMCVGFLSGGVDSCDGDSGGPLSSVEADGRIFQAGVVSWGDGCAQRNKPGVYTRLPLFRDWIKENTGV
B13: MTSP-1 Q38H/I41S/D60bS/ins97aV/F97D/T98P/F99L/M117L/C122S/I136T/Q192G/D217I (enzyme)
chain: VVGGTDADEGEWPWQVSLHALGHGHSCGASLISPNWLVSAAHCYIDSRGFRYSDPTQWTAFLGLHDQSQRSAPGVQERRLKRIISHPFFNDDVPLDYDIALLELEKPAEYSSLVRPISLPDASHVFPAGKATWVTGWGHTQYGGTGALILQKGEIRVINQTTCENLLPQQITPRMMCVGFLSGGVDSCGGDSGGPLSSVEADGRIFQAGVVSWGIGCAQRNKPGVYTRLPLFRDWIKENTGV
B14: MTSP-1 Q38H/I41A/D60bE/F60eH/Y60gW/ins97aE/F97T/T98G/F99L/C122S/G151H/Q175L/Q192D (enzyme)
chain: VVGGTDADEGEWPWQVSLHALGHGHACGASLISPNWLVSAAHCYIDERGHRWSDPTQWTAFLGLHDQSQRSAPGVQERRLKRIISHPFFNDTEGLDYDIALLELEKPAEYSSMVRPISLPDASHVFPAGKAIWVTGWGHTQYGGTHALILQKGEIRVINQTTCENLLPQLITPRMMCVGFLSGGVDSCDGDSGGPLSSVEADGRIFQAGVVSWGDGCAQRNKPGVYTRLPLFRDWIKENTGV
B15: MTSP-1 Q38R/I41T/D60bT/ins97aV/F97D/T98P/F99L/C122S/I136V/Q192G/D217N/L233Q (enzyme)
chain: VVGGTDADEGEWPWQVSLHALGRGHTCGASLISPNWLVSAAHCYIDTRGFRYSDPTQWTAFLGLHDQSQRSAPGVQERRLKRIISHPFFNDDVPLDYDIALLELEKPAEYSSMVRPISLPDASHVFPAGKAVWVTGWGHTQYGGTGALILQKGEIRVINQTTCENLLPQQITPRMMCVGFLSGGVDSCGGDSGGPLSSVEADGRIFQAGVVSWGNGCAQRNKPGVYTRLPQFRDWIKENTGV

Target: plasma purified human complement protein C3 (human) (UniProt P01024)
Sequence (P01024 23-667, chain 1 of 2): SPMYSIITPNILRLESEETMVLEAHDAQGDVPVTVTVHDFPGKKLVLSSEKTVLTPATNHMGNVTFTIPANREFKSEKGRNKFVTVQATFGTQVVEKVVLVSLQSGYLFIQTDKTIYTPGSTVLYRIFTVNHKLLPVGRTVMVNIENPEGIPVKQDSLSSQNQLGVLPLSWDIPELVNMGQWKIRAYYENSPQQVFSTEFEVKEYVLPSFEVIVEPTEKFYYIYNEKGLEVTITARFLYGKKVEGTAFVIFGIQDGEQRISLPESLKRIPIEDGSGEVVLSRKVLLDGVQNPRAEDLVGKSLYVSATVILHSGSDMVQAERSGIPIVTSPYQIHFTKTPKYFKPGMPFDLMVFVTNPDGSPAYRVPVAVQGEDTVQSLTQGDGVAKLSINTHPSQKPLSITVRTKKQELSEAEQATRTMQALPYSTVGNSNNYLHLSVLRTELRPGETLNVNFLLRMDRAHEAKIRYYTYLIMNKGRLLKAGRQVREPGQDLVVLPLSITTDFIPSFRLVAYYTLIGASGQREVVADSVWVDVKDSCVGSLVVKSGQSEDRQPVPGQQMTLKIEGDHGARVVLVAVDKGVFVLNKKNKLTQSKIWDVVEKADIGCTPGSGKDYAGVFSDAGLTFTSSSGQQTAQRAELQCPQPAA
Sequence (P01024 672-1663, chain 2 of 2): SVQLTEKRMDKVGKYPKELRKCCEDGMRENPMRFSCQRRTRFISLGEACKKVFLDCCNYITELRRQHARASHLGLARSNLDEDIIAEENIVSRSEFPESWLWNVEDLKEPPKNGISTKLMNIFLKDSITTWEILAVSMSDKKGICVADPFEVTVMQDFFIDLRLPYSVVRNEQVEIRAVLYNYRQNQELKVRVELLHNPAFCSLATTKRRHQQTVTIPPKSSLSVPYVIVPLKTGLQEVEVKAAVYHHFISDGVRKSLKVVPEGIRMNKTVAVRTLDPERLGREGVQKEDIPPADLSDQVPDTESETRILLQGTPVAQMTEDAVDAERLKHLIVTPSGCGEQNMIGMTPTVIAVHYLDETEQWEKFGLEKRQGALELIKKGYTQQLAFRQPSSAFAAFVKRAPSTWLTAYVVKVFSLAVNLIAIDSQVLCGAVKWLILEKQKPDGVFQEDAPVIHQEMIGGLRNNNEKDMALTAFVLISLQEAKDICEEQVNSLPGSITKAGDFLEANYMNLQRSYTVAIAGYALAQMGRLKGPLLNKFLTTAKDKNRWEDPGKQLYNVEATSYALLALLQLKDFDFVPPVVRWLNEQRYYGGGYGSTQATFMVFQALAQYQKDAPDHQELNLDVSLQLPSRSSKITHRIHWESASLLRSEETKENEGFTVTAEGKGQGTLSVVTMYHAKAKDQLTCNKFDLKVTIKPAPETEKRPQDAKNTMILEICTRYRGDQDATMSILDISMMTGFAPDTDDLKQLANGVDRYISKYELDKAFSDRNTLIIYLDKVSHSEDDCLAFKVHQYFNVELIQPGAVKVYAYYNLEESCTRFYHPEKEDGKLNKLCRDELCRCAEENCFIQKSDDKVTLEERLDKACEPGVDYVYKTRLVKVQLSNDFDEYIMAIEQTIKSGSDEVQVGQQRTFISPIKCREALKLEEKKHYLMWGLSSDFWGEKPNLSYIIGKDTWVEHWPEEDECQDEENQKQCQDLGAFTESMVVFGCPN
Experiment: cell-based or functional assay

Binder | EC50 of hC3 cleavage [nM]
B1 | 22.5
B2 | 6.78
B3 | 4.52
B4 | 22.9
B5 | 10.6
B6 | 22.2
B7 | 22
B8 | 10.2
B9 | 48.3
B10 | 27.7
B11 | 3.06
B12 | 6.42
B13 | 2.43
B14 | 13.8
B15 | 39.8
